Data reported in patent publication US8895245.

Experiments:
[1] = system: Biotinylated histone H3:21-44 peptide containing monomethylated K27
[2] = system: Biotinylated histone H3:21-44 peptide containing dimethylated K27
[3] = system: Chicken erythrocyte oligonucleosomes
[4] = system: Biotinylated histone H3:21-44 peptide containing unmethylated K27

Substance | K (K1/2, concentration of peptide resulting in half-maximal velocity) [1] [nM] | K (K1/2, concentration of peptide resulting in half-maximal velocity) [2] [nM] | K (Km for nucleosome) [3] [µM] | K (K1/2, concentration of peptide resulting in half-maximal velocity) [4] [nM]
Recombinant five-component PRC2 complex containing Y641F mutant EZH2 | 404 | 191 | 0.176 | 240
Recombinant five-component PRC2 complex containing Y641H mutant EZH2 | 319 | 148 | 0.14 | –
Recombinant five-component PRC2 complex containing Y641N mutant EZH2 | 280 | 157 | 0.191 | –
Recombinant five-component PRC2 complex containing Y641S mutant EZH2 | 249 | 136 | 0.137 | –
